Measurements as given in patent US20230201364A1 (BRIGHT PEAK THERAPEUTICS, published 2023).

Experiments:
[1] = target: T1, recombinant biotinylated human Fc gamma receptor IIIa (FcγRIIIa/CD16) (human, UniProt P08637 17-208, limits assumed, biotinylated); assay: AlphaLISA competition: test antibody titrated against biotinylated human FcγRIIIa; competitor: human IgG Fc on acceptor beads; signal normalized to %; panel 'FcγR3a/CD16 Binding Assay'
T1 construct: Allotype given inconsistently (V158 against 176P/F158); also called FcgRIIIa; FcγR3a
Protocol: (§1) The interaction of the unmodified and of conjugated antibodies with human Fc gamma receptors I (FcγRI/CD64), with human Fc gamma receptors II (FcγRIIa/CD32), and with low affinity human Fc gamma receptors III FcγR3a/CD16 V158 were measured using the AlphaLISA® Human FcγR1/CD64 (AL3081C), FcγRIIa/CD32a 167H (AL3086C), and FcγRIII/CD16 176P/F158 (AL3471HV) binding Kits respectively (Perkin Elmer, Schwerzenbach, Switzerland).
(§2) After 90 min at 23° C. in the dark, AlphaLISA® signal was measured on an EnSpire plate reader (Excitation at 680 nm, Emission at 615 nm) from Perkin Elmer (Schwerzenbach, Switzerland).

[2] = target: T2, recombinant biotinylated human Fc gamma receptor I (FcγRI/CD64) (human, UniProt P12314 16-288, limits assumed, biotinylated); assay: AlphaLISA competition: test antibody titrated against biotinylated human FcγRI; competitor: human IgG Fc on acceptor beads; signal normalized to %; panel 'FcγR1/CD64 Binding Assay'
T2 construct: also called FcgRI
Protocol: as §1, §2

[3] = target: T3, recombinant biotinylated human Fc gamma receptor IIa (FcγRIIa/CD32a 167H) (human, UniProt P12318 36-218, limits assumed, biotinylated); assay: AlphaLISA competition: test antibody titrated against biotinylated human FcγRIIa; competitor: human IgG Fc on acceptor beads; signal normalized to %; panel 'FcγR2a/CD32a Binding Assay'
T3 construct: also called FcgRIIa
T3 sequence (looked up): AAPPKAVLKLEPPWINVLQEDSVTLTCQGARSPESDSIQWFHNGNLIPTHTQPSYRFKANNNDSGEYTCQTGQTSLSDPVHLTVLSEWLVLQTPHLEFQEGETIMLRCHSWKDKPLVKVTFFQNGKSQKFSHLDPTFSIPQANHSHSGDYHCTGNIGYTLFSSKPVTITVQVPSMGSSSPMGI
Protocol: as §1, §2

[4] = target: T3, recombinant biotinylated human Fc gamma …; assay: AlphaLISA competition; test molecule titrated against human IgG Fc acceptor beads for biotinylated FcγRIIa
Protocol: as §1, §2

[5] = target: T4, CD20 (human, UniProt P11836 1-297, limits assumed); assay: ELISA by a method analogous to the PD-1 ELISA; antigen reagent not described
T4 construct: The CD20 reagent of the ELISA is not described (analogous methods); also called human CD20
T4 sequence: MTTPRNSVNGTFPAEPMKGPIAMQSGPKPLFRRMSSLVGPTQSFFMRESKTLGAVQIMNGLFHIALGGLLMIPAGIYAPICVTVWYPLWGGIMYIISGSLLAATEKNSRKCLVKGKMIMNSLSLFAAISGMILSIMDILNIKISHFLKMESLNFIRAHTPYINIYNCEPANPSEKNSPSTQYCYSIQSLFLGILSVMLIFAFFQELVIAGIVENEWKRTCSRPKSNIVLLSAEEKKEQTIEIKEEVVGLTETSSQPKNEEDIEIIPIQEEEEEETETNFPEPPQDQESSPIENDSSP

[6] = target: T5, Fc gamma receptor IIb (FcgRIIb, CD32b) (human, UniProt P31994 46-217, limits assumed); assay: AlphaLISA competition or analogous assay for FcγRIIb (not described)
T5 construct: the kit is not described; also called FcRIIb
T5 sequence (looked up): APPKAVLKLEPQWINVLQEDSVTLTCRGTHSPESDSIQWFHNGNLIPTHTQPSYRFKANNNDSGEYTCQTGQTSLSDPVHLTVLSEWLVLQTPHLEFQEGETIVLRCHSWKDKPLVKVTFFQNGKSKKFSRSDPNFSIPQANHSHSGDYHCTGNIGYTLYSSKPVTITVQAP

[7] = target: T2, recombinant biotinylated human Fc gamma …; assay: AlphaLISA competition; test molecule titrated against human IgG Fc acceptor beads for biotinylated FcγRI
Protocol: as §1, §2

[8] = target: T1, recombinant biotinylated human Fc gamma …; assay: AlphaLISA competition; test molecule titrated against human IgG Fc acceptor beads for biotinylated FcγRIIIa
Protocol: as §1, §2

[9] = target: T6, recombinant biotinylated human neonatal Fc receptor (FcRn) (human, UniProt P55899 24-297; P61769 21-119, limits assumed, biotinylated); assay: AlphaLISA competition at pH 6; test molecule titrated against human IgG acceptor beads for biotinylated human FcRn
T6 construct: also called human FcRn
Protocol: (§3) The interaction of the unmodified and of conjugated anti-PD1 antibodies with the human neonatal Fc receptor (FcRn) at pH 6 was measured using the AlphaLISA Human FcRn Binding Kit (AL3095C) from Perkin Elmer (Schwerzenbach, Switzerland).
(§4) After 90 min at 23° C. in the dark, AlphaLISA signal was measured on an EnSpire plate reader (Excitation at 680 nm, Emission at 615 nm) from Perkin Elmer (Schwerzenbach, Switzerland).

[10] = target: T2, recombinant biotinylated human Fc gamma …; assay: AlphaLISA competition: test antibody titrated against biotinylated human FcγRI on donor beads; competitor: human IgG Fc on acceptor beads; signal normalized to %
Protocol: as §1, §2

[11] = target: T6, recombinant biotinylated human neonatal …; assay: AlphaLISA competition at pH 6: test antibody titrated against biotinylated human FcRn on donor beads; competitor: human IgG on acceptor beads
Protocol: as §3, §4

[12] = target: recombinant biotinylated PD1/CD279 protein (AcroBiosystems PD1-H82E4) (UniProt Q15116 25-167, biotinylated); assay: ELISA; antibody coated on plate, biotinylated antigen titrated, streptavidin-HRP
Protocol: The interaction of the unmodified and of conjugated antibodies their antigens were measured by ELISA assay.
For these PD-1 ELISAs, Corning high-binding half-area plates (Fisher Scientific, Reinach, Switzerland) were coated overnight at 4° C. with 25 μl of unmodified and of conjugated anti-PD1 antibodies at 5 μg/ml in PBS. Plates were then washed four times with 100 μl of PBS-0.02% Tween20. Plates surfaces were blocked with 25 μl of PBS-0.02% Tween20-1% BSA at 37° C. during 1 h. Plates were then washed four times with 100 μl of PBS-0.02% Tween20. […] Fifty microliters of TMB substrate reagent (#CL07, Merck, Buchs, Switzerland) were added to each well and incubated at 37° C. during 5 min. After 5 min at 37° C., Horseradish peroxidase reaction was stopped by adding 50 μl/well of 0.5M H₂SO₄ stop solution. ELISA signal was then measured at 450 nm on an EnSpire plate reader from Perkin Elmer (Schwerzenbach, Switzerland). ELISAs for other antibody/antigen pairs were performed using analogous methods.

B1: CMP-033 (Durvalumab) (antibody, human IgG1, kappa)
heavy chain: EVQLVESGGGLVQPGGSLRLSCAASGFTFSRYWMSWVRQAPGKGLEWVANIKQDGSEKYYVDSVKGRFTISRDNAKNSLYLQMNSLRAEDTAVYYCAREGGWFGELAFDYWGQGTLVTVSSASTKGPSVFPLAPSSKSTSGGTAALGCLVKDYFPEPVTVSWNSGALTSGVHTFPAVLQSSGLYSLSSVVTVPSSSLGTQTYICNVNHKPSNTKVDKRVEPKSCDKTHTCPPCPAPEFEGGPSVFLFPPKPKDTLMISRTPEVTCVVVDVSHEDPEVKFNWYVDGVEVHNAKTKPREEQYNSTYRVVSVLTVLHQDWLNGKEYKCKVSNKALPASIEKTISKAKGQPREPQVYTLPPSREEMTKNQVSLTCLVKGFYPSDIAVEWESNGQPENNYKTTPPVLDSDGSFFLYSKLTVDKSRWQQGNVFSCSVMHEALHNHYTQKSLSLSPGK
light chain: EIVLTQSPGTLSLSPGERATLSCRASQRVSSSYLAWYQQKPGQAPRLLIYDASSRATGIPDRFSGSGSGTDFTLTISRLEPEDFAVYYCQQYGSLPWTFGQGTKVEIKRTVAAPSVFIFPPSDEQLKSGTASVVCLLNNFYPREAKVQWKVDNALQSGNSQESVTEQDSKDSTYSLSSTLTLSKADYEKHKVYACEVTHQGLSSPVTKSFNRGEC
notes: unconjugated parent anti-PD-L1 antibody; also called Imfinzi; MEDI-4736
In the case of B1, the “IC50 (read off the curve)” value [1] is reported as about 500 nM, the binding result [2] is reported as “binds” and the “IC50 (read off the curve)” value [3] is reported as about 400 nM.

B2: CMP-032 (biosimilar Rituximab) (antibody, human IgG1, kappa)
heavy: not shown
light: QIVLSQSPAILSASPGEKVTMTCRASSSVSYIHWFQQKPGSSPKPWIYATSNLASGVPVRFSGSGSGTSYSLTISRVEAEDAATYYCQQWTSNPPTFGGGTKLEIKRTVAAPSVFIFPPSDEQLKSGTASVVCLLNNFYPREAKVQWKVDNALQSGNSQESVTEQDSKDSTYSLSSTLTLSKADYEKHKVYACEVTHQGLSSPVTKSFNRGEC
notes: Unconjugated parent anti-CD20 antibody (DAR 0); A biosimilar/generic rituximab was tested; also called generic rituximab
With B2 the Kd [4] was 740 nM, the Kd [5] was 0.076 nM and the Kd [6] was 880 nM. The Kd [7] was 0.233 nM, the Kd [8] was 133 nM and the Kd [9] was 4.03 nM.

B3: CMP-004 (Pembrolizumab) (antibody, human IgG4 S228P, kappa)
heavy: not shown
light: EIVLTQSPATLSLSPGERATLSCRASKGVSTSGYSYLHWYQQKPGQAPRLLIYLASYLESGVPARFSGSGSGTDFTLTISSLEPEDFAVYYCQHSRDLPLTFGGGTKVEIKRTVAAPSVFIFPPSDEQLKSGTASVVCLLNNFYPREAKVQWKVDNALQSGNSQESVTEQDSKDSTYSLSSTLTLSKADYEKHKVYACEVTHQGLSSPVTKSFNRGEC
notes: Unconjugated parent anti-PD-1 antibody (DAR 0); also called Lambrolizumab
In the case of B3, the Kd [7] is reported as 0.488 nM, the “IC50 (read off the curve)” value [10] is reported as about 0.5 nM and the Kd [8] is reported as 289 nM. For the same binder, the “IC50 (read off the curve)” value [11] was about 10 nM and the Kd [9] was 7.31 nM.

B4: CMP-105 (LZM-009) (antibody, V domains shown)
VH: QVQLVQSGAEVKKPGASVKVSCKASGYTFTSYYMYWVRQAPGQGLEWMGGVNPSNGGTNFNEKFKSRVTITADKSTSTAYMELSSLRSEDTAVYYCARRDYRYDMGFDYWGQGTTVTVSS
VL: EIVLTQSPATLSLSPGERATISCRASKGVSTSGYSYLHWYQQKPGQAPRLLIYLASYLESGVPARFSGSGSGTDFTLTISSLEPEDFATYYCQHSRELPLTFGTGTKVEIK
notes: Unconjugated parent anti-PD-1 antibody (DAR 0); also called Livzon PD1 AB
B4 was tested, and the Kd [12] was 0.035 nM.

B5: CMP-102 (LZM-009 conjugated to CMP-003, DAR 1, K288) (antibody)
VH: B4 VH
VL: B4 VL
chain: APTSSSTKKTQLQLEHLLLDLQXILNGINNYKNPKLTRXLXYKFYXPKKATELKHLQCLEEELKPLEEVLXLAQSKNFHLRPRDLISNINVIVLELKGSETTFXCEYADETATIVEFLNRWITFSQSIISTLT
modifications: not fully specified; Nle at 23, 39, 46 and Hse at 41, 71, 104 (as in SEQ ID NO: 3); ~0.5 kDa PEG on Y45; 0.5 kDa PEG on F42Y whose azide end is joined to the DBCO linker of the antibody; the heavy chain carries a chemical linker to CMP-003 on Lys K288 (Eu numbering) of the Fc; DAR 1
With B5 the Kd [12] was 0.027 nM.

B6: CMP-041 (LZM-009 conjugated to CMP-095 (IL-7), DAR 1, K248) (antibody)
VH: B4 VH
VL: B4 VL
chain: DCDIEGKDGKQYESVLXVSIDQLLDSXKEIGSNCLXNEFNFFKRHICDANKEGXFLFRAARKLRQFLKXNSTGDFXLHLLKVSEGTTILLNCTGQVKGRKPAALGEAQPTKSLXENKSLKEQKKLNDLCFLKRLLQEIKTCWNKILXGTKEH
modifications: not fully specified; Nle at 17, 27, 54, 69, 147 and Hse at 36, 76, 114 (as in SEQ ID NO: 187); N-terminal amine carries glutaryl-PEG9 whose azide end is joined to the DBCO linker of the antibody; the heavy chain carries a chemical linker to CMP-095 on Lys K248 (Eu numbering) of the Fc; DAR 1
notes: also called Livzon PD1:IL7wt
Work on B6 yielded a Kd [12] of 0.035 nM.

B7: CMP-028 (LZM-009 conjugated to CMP-003, DAR 1.9, K288) (antibody)
VH: B4 VH
VL: B4 VL
chain: B5 chain
modifications: not fully specified; Nle at 23, 39, 46 and Hse at 41, 71, 104 (as in SEQ ID NO: 3); ~0.5 kDa PEG on Y45; 0.5 kDa PEG on F42Y whose azide end is joined to the DBCO linker of the antibody; the heavy chain carries a chemical linker to CMP-003 on Lys K288 (Eu numbering) of the Fc; DAR 1.9
Binder B7 has a Kd [12] of 0.041 nM.

B8: CMP-016 (LZM-009 conjugated to CMP-003, DAR 1, K248) (antibody)
VH: B4 VH
VL: B4 VL
chain: B5 chain
modifications: not fully specified; Nle at 23, 39, 46 and Hse at 41, 71, 104 (as in SEQ ID NO: 3); ~0.5 kDa PEG on Y45; 0.5 kDa PEG on F42Y whose azide end is joined to the DBCO linker of the antibody; the heavy chain carries a chemical linker to CMP-003 on Lys K248 (Eu numbering) of the Fc; DAR 1
Binder B8 has a Kd [12] of 0.037 nM.
